Source: patent US20250042994A1 (HAINAN SIMCERE ZAIMING PHARMACEUTICAL, published 2025)

Key:
[1] = target: T1, monkey CD19 on HEK293T-monkey CD19 cells (monkey); test: FACS on HEK293T-monkey CD19 cells
T1 construct: whole, on cells
Procedure: (§1) After the digestion was terminated, the cells were washed 2 times with a PBS buffer; and for suspension cell Raji, the supernatant of the medium was discarded by directly centrifugation, and the cell pellet was washed 2 times with PBS. After counting the cells in the previous step, the cell pellet was resuspended with [PBS+2% (w/w) BSA] blocking solution to 2×10⁶ cells/ml, and added to a 96-well FACS reaction plate at 50 μl/well, and then the sample to be tested was added at 50 μl/well, and incubated on ice for 2 h. The obtained mixture was centrifuged and washed 3 times with a PBS buffer. […] The obtained mixture was centrifuged and washed 5 times with a PBS buffer, and FACS (FACS Canto™, purchased from BD Company) was used for detection and result analysis. Data analysis was performed by software (FlowJo) to obtain the mean fluorescence intensity (MFI) of the cells. And then software (GraphPad Prism8) was used for analysis, data fitting, and EC50 value calculation. […] The same method was used to detect the binding of the chimeric antibodies to endogenous CD19-negative cells, MoLT4 cells (purchased from ATCC, CRL-1582), and CHO-K1 cells.
HEK293T-monkey CD19 cells were subjected to FACS detection and data analysis according to the method in example 5.2. […] The same method was used to detect binding of the chimeric antibodies to HEK293T cells.

[2] = target: T2, cynomolgus monkey CD19 on peripheral blood B cells (cynomolgus monkey (Macaca fascicularis), UniProt A0A2K5W8L9 20-557); test: FACS, cynomolgus PBMC, CD20+ B cells
T2 construct: whole, on cells; also called cynomolgus monkey B cells
T2 sequence: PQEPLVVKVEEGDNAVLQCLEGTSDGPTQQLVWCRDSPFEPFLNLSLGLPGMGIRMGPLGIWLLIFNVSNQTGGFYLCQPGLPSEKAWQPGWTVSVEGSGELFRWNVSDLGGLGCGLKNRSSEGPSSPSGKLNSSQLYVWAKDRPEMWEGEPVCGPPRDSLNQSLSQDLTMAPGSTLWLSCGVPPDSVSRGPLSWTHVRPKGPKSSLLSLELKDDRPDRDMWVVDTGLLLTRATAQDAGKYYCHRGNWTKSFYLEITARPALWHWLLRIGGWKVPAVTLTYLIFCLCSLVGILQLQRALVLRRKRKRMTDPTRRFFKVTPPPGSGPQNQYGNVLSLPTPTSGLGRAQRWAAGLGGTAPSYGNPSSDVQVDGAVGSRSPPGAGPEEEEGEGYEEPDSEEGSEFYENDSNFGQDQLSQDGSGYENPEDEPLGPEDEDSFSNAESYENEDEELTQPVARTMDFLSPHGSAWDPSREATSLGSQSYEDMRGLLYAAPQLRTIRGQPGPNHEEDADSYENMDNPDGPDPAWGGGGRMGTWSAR
Procedure: The monkey peripheral blood mononuclear cells were extracted from fresh cynomolgus monkey peripheral blood (purchased from Shanghai Medicilon Inc.) according to the instructions of Ficoll-Paque Plus (purchased from GE Healthcae, catalog number: 171440-02). After the cell suspension was centrifuged, the cells were resuspended in PBS containing 1% BSA, and then the cells were counted. […] The mixture was incubated for 1 h at room temperature. After washing the cells three times, APC-labeled secondary antibody anti-human IgG Fc (catalog number: 409306, purchased from Biolegend) was added. After incubation at room temperature in the dark for 30 minutes, the cells were washed 5 times, gently resuspended with PBS containing 1% BSA, and detected and analyzed by FACS (FACS Canto™, purchased from BD Company), in which CD20 was used as a marker of B cells to gate the CD20-positive B cell population, the proportion of the chimeric antibody-labeled positive cells was analyzed, and the proportion of the chimeric antibody positive cell population to B cell population was calculated after treatments with the chimeric antibodies at the concentrations of 100 nM, 10 nM and 1 nM, respectively.

[3] = target: T3, human CD19 on CHO-K1-human CD19 cells (human, UniProt P15391 20-556); test: FACS on CHO-K1-human CD19 cells
T3 construct: whole, on cells; also called CHO-K1-human CD19-2C8
T3 sequence (looked up): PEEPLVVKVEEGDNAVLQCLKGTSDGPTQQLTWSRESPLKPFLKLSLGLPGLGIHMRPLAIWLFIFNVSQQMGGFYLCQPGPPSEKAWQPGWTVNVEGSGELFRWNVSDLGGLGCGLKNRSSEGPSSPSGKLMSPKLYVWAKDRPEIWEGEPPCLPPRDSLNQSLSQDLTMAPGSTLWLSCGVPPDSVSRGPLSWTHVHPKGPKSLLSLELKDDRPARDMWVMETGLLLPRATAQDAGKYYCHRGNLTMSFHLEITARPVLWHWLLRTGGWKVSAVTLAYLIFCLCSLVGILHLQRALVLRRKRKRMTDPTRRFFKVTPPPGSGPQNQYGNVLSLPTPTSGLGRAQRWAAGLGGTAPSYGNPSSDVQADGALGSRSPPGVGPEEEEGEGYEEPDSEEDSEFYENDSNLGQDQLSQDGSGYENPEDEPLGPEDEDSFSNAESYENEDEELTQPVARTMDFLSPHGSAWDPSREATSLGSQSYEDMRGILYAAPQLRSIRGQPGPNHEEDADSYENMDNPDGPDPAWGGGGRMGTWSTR
Text: as §1, with “The desired cells were scale-up cultured in a T-75 cell culture flask to the logarithmic growth phase. For the adherent cell CHO-K1, the medium was aspirated, the cells were washed 2 times with a PBS buffer, and then digested with trypsin. After the” for “After the”

[4] = target: T4, human CD19 on Raji cells (human, UniProt P15391 20-556); test: FACS on Raji cells
T4 construct: whole, on cells
T4 sequence (looked up): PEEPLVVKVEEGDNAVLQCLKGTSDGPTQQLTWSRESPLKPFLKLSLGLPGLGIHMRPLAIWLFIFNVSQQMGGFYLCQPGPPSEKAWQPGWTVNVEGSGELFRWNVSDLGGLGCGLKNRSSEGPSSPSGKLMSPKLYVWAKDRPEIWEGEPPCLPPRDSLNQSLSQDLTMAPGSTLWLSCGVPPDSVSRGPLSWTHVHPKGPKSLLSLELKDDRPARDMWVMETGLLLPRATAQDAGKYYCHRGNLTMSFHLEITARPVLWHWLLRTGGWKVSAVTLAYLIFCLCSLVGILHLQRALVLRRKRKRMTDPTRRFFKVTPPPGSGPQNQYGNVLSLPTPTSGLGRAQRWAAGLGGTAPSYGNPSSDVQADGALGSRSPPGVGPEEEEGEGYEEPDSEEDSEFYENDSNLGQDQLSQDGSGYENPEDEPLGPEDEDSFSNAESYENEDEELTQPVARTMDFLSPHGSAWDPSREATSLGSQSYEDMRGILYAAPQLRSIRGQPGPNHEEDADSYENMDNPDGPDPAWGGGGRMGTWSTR
Text: as §1, with “The desired cells were scale-up cultured in a T-75 cell culture flask to the logarithmic growth phase. For the adherent cell CHO-K1, the medium was aspirated, the cells were washed 2 times with a PBS buffer, and then digested with trypsin. After the” for “After the”

Row | Binder | Maximum mean fluorescence intensity [1] | Proportion of chimeric antibody positive cells to B cells (%) at 1 nM [2] [%] | Proportion of chimeric antibody positive cells to B cells (%) at 10 nM [2] [%] | Proportion of chimeric antibody positive cells to B cells (%) at 100 nM [2] [%] | EC50 [3] [nM] | Maximum mean fluorescence intensity [3] | EC50 [4] [nM] | Maximum mean fluorescence intensity [4] | EC50 [1] [nM]
1 | F4.276.12 (antibody, human IgG1, V domains shown, human-murine chimeric antibody, human IgG1) VH: EIQLQQSGPELVKPGASVKVSCKASGYAFSAYNMYWVKQSHGKSLEWIGYIDPYNGGTNYNQKFKGKATLTVDKSSSTAYMHLNSLTSEDSAVYYCARDGYEVTYWGQGTLVTVSA VL: QIVLTQSPALMSASLGEEITLTCSASSSVTYMHWSQQKSGTSPRLLIYSTSNLASGVPSRFSGSGSGTFYSLTISSVEAEDAADYYCHQWSSYPWTFGGGTKLEIK | 597 | 2 | 1 | 2 | 1.05 | 50200 | 0.78 | 23500 | –
2 | F6.12.12 (antibody, human IgG1, V domains shown, human-murine chimeric antibody, human IgG1) VH: DVQLQESGPGLVKPSQSLSLTCSVTGYSITSGYYWIWIRQFPGNKLEWMGYISYDASNKYKPSLKNRISITRDTSKNQFFLKLNSVTAEDTATYFCAREDLRGYFDVWGTGTSVTVSS VL: DIVLTQSPASLAVSLGRRATISCRASQSVSTSGFSYMHWYQQKPGQPPNLLIKYASILQSGVPARFSGSGSGTDFILNIHPVEDVDTATYYCQHSWGIPFTFGSGTKLEIK | 99100 | 91 | 97 | 97 | 0.84 | 63300 | 5.25 | 43300 | 0.94
3 | F1-mab003 (antibody, human IgG1, V domains shown, human-murine chimeric antibody, human IgG1) VH: EVQLQQSGPELVKPGASVKMSCKASGYTFTDYVMHWVRQTPGQGLEWIGYFNPYNDGTNYNEKFKVKATLTSDKSSTTAYMELSSLTSEDSAVYYCARGVYYYGRDFDYWGQGTTLTVSS VL: DVVLTQTPLSLPVSLGDQASISCRSSQSLENSNGNSYLNWYLQKPGQSPQLLIYRVSNRFSGVLDRFSGSGSGTDFTLKISRVEAEDLGVYFCLQITHVPWTFGGGTKLEIK | 75000 | 15 | 32 | 59 | 0.69 | 66900 | 0.57 | 33100 | 1.76
4 | F2.15.26 (antibody, human IgG1, V domains shown, human-murine chimeric antibody, human IgG1) VH: QVQLKESGPGLVAPSQSLSITCTVSGFSLTDYGVSWIRQSPGKGLEWLGVIWGSGDTYYNSVLESRLSINKDNSKNQVFLKMNSLQTDDAAMYFCAKHSYYGGSFAMDYWGQGTSVTVSS VL: DIQMTQTTSSLSASLGDRVTISCRASQDISNYLNWYQQKPDGTVKLLIYYTSRLHSGVPSRFSGSGSGTDYSLTISNLEQEDIATYFCQQGKTLPWTFGGGTKLEIK | 28700 | 2 | 6 | 22 | 0.71 | 60400 | 0.53 | 29200 | 16.7
5 | F3.3.10 (antibody, human IgG1, V domains shown, human-murine chimeric antibody, human IgG1) VH: DVQLQESGPGLAKLSQSLSLTCSVTGYSITSGYYWNWIRQFPGNKLEWMGHISYDGNNNYNPSLKNRISITRDTSKNQFFLKLNSVTTEDTATYYCARENYSNYYFDYWGQGTTLTVSS VL: DIVLTQSPASLAVSLGQRATISCRASQSVSKSSYTYIHWYQQKPGQPPKLLIKYASILQSGVPARFSGSGSGTDFTLNFHPVEEEDTATYYCQHSWEIPYTFGGGTKLEIK | 173000 | 38 | 91 | 99 | 1.9 | 48300 | 2.9 | 29700 | 2.08
6 | F3.5.1 (antibody, human IgG1, V domains shown, human-murine chimeric antibody, human IgG1) VH: QAQLQQSGPELVKPGASVKISCKASGYAFSGSWMNWVQQRPGKGLEWIGRIYPGDGDTYYNGKFKDKAILTADKSSSTAYMQLSSLTSEDSAVYFCAQLRYRYVMDYWGQGTSVTVSS VL: DIVLTQSPASLAVSLGQRATISCRASESVSIHGSHLMHWYQQKPGQPPRLLIYAASNLESGVPARFSGSGSETDFTLNIHPVEEEDAATYFCQQGIKDPYTFGGGTKLEIK | 80000 | 6 | 15 | 23 | 2.49 | 49900 | 1.47 | 24800 | 6.11
7 | F3.40.14 (antibody, human IgG1, V domains shown, human-murine chimeric antibody, human IgG1) VH: QAQLQQSGPELVKPGASVKISCKASGYAFSGSWMNWVQQRPGKGLEWIGRIYPGDGDTYYSGKFKDKAILTADTSSSTAYMQLSSLTSEDSAVYFCAQLRSRYVMDYWGQGASVTVSS VL: DIVLTQSPASLAVSLGQRATISCRASESVSIHGTHLMHWYQQKPGQPPRLLIYAASNLESGVPARFSGSGSETDFTLNIHPVEEEDAATYFCQQGIDDPYTFGGGTKLEIK | 281 | 1 | 1 | 5 | 6 | 49100 | 2.59 | 27000 | –
